These results are taken from patent US20240400644A1 (ACROIMMUNE GUANGZHOU BIOTECH, published 2024).

The target of experiment [1] is CD24Fc (HEK293 cell derived) (UniProt P25063). The experiment is described as follows: direct ELISA, antigen coated at 10 µg/ml, mAb titrated. Background: In an ELISA, binding on a coated surface is turned into a signal by an enzyme label.
In a further experiment the target is T1, HMGB1-His tag protein (human, UniProt P09429 1-215, limits assumed).
T1 construct: Bought, HEK293 cell derived; also called human HMGB1; HMGB1-His protein; not shown: His tag
T1 sequence (looked up): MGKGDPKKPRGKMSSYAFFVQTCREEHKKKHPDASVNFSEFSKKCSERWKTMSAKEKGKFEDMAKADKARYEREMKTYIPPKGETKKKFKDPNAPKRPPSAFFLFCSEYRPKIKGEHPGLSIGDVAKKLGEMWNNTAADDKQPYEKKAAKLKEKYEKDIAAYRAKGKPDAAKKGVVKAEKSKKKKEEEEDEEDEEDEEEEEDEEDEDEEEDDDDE
The experiment is described as follows: ELISA, HMGB1-His coated at 0.1 µg/mL, fusion protein titrated. The method, then:
96-well plates were coated (100 μL per well) with 0.1 μg/mL HEK293 cell derived HMGB1-His tag protein (AcroBiosystems, HM1-H5220) at 4° C. overnight. After blocking with SuperBlock (Thermo, 37515) at room temperature for 1 hour, 100 μL of 2-fold serial dilutions of AI-071 or CD24Fc (all starting at 1.5 mg/mL, dilution buffer: PBST-1% BSA solution containing 1 mM MgCl2 and 1 mM CaCl2) were added. The bound AI-071 or CD24Fc protein was then detected by adding HRP-labeled goat anti-human IgG-Fc antibody (1:1000, Invitrogen, A18829), followed by the addition of tetramethylbenzidin (TMB) substrates. The EC50 values of the binding are shown in the underneath table. […] Recombinant HMGB1-His protein sample was incubated with AI-071, human IgG-Fc, or none for 5 min, the mixture was then incubated with protein A-conjugated beads to capture (or pull-down) the bound proteins. The captured proteins were then separated in a SDS-PAGE gel and visualized by Coomassie Brilliant Blue dye staining. […] As indicated on the top of each gel, lane 1 represents the sample containing HMGB1 only, lane 2 represents the sample containing HMGB1 and human IgG-Fc, and lane 3 represents the sample containing HMGB1 and AI-071, lane M is the protein molecule weight marker sample. […]

Experiment [2] concerns the target T2, Siglec10-mIgG2aFc fusion protein (human, UniProt Q96LC7 17-546, limits assumed).
T2 construct: Bought, HEK293 cell derived; also called human Siglec-10; AcroBiosystems SIO-H525b; not shown: mouse IgG2a Fc of the bought protein
T2 sequence (looked up): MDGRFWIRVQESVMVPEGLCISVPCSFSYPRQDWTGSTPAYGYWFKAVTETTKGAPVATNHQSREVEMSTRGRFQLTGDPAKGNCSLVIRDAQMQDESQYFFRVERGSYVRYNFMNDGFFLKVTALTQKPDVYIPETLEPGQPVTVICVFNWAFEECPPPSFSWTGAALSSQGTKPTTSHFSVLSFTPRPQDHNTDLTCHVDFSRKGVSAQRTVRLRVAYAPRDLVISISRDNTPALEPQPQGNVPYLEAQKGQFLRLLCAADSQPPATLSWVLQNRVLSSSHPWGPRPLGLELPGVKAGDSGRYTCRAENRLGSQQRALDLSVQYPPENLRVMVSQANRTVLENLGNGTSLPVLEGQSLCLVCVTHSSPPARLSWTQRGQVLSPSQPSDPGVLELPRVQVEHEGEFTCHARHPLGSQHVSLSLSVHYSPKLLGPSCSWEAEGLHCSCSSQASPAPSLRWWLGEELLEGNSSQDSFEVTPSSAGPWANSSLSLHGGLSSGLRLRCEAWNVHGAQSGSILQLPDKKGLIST
The experiment is described as follows: ELISA, Siglec10-mIgG2aFc coated at 0.2 µg/mL, fusion protein titrated. The method, then: 96-well plates were coated (100 μL per well) with 0.2 μg/mL of HEK293 cell derived Siglec10-mlgG2aFc fusion protein (AcroBiosystems, SIO-H525b) at 4° C. overnight. After blocking with SuperBlock (Thermo, 37515) at room temperature for 1 hour, 100 μL of 2-fold serial dilutions of AI-071 or CD24Fc protein (all starting at 1.5 mg/mL) were added. The bound AI-071 or CD24Fc protein was then detected by HRP-labeled goat anti-human IgG-Fc antibody (1:5000, Invitrogen, A18829) followed by the addition of tetramethylbenzidine (TMB) substrates. The EC50 values of the binding are shown in the underneath table.
To probe the interaction of AI-071 protein with the members of Siglec family such as Siglec10, an ELSIA assay was developed. In-brief, 96-well plates were coated (100 μL per well) with 0.2 μg/mL of HEK293 cell derived Siglec10-mlgG2aFc fusion protein (AcroBiosystems, SIO-H525b) at 4° C. overnight. After washing and blocking with SuperBlock (Thermo, 37515) at room temperature for 1 hour, 100 μL of 2-fold serial dilutions of either AI-71 or CD24Fc (all starting at 1.5 mg/ml) were added. The bound AI-071 or CD24Fc protein was then detected by HRP-labeled goat anti-human IgG-Fc antibody (1:5000, Invitrogen, A18829) followed by the addition of Tetramethylbenzidin (TMB) substrates. […] The OD values at a wavelength of 450 nm (OD 450 nm) in each well were then measured.

For SN3 mouse anti-CD24 mAb (antibody), the concentration for a half-maximal effect (EC50) (usually the concentration giving half of the maximal effect) in experiment [1] came to 4.67 nM.

B1: CD24Fc (producing cell not stated) (Fc fusion, UniProt P25063 27-59, looked up)
chain: SETTTGTSSNSSQSTSNSGLAPNPTNATTKAAG
notes: not shown: Fc part
As for B1, the EC50 in the experiment with HMGB1-His tag protein was 51000 nM; in experiment [2], 2850 nM.
